Test results as given in the DeepSol protein solubility set.

Experiment: soluble on expression in E. coli; label from the status in PepcDB or PDB records

Q: With “MAHHHHHHMSMKGSKNMLSPLVGNIYNNVYDHKELKMKSINEQNNMGSNNYNINYVNNNNSTLSNNNHSKQNLCYNNFSSHSPSINKDSIHEEKKNNFYEQHNYIDENATHHTMEEENYKNFKNSKNYEHTIDEDVMQNEYSNIIKDNHLKKKKKKKNIHHLNNKDINNTNLNYETNEQVLIDLPKNHLLNKLTTSIIHSINPHLISEYTHEDITKRTNKISTLKKKKKKKKIEREEIYESDVDNTNGEDNTNDVDNTNDEDNTNDEDNTNDGDNEQIHYHKQFDDQIQKQKNKQNKQKKEYKEFDVYETKGYIPLSNEHKQNKSVCFLDNHVKYYTQQNNVPYEKNIIYENNLNDHQAHSYYNNTLNQFTPNSDILNYNNYINKEYIQGIYNTNNYNIKQDSVYEPNEQVMFMSPQEEKYIYMNASPNNIIRNNDMVFYSGQLDNEQMNININNNNNINNNDNNINSSSSVNDGCFNLHLNNMNNIFNTCTNTQNKQKTHKSFFCNSSAKNVINNENNVKNNKTEILIYKNDKTNNYQNNNQTKQNIQSNNHYNNNNNNNGNHINKFRFFTPTSNNVFVRTRSLTPNTYQKKKKNSFFACSPLKDINLNRQKSLPPQLYTTQDITQPIYTHDISYNLSNKNNIIQNDPYNNIQNITTTLSYPLVNSNFVHLYPYQNSNTNNQIKKIENFNVSKNYMNESSTQTSTETSSKSSKDTSLWNTQIHLLNEKIKNMKTKMENITKEKNEVNELCKMYKVIKNHINVNV” as the sequence, how does the “soluble on expression in E. coli” value read?
A: not soluble

Q: With “MQVHVIRRENRALYAGLLEKYFRIRHQIYVVERGWKELDRPDGREIDQFDTEDAVYLLGVDNDDIVAGMRMVPTTSPTLLSDVFPQLALAGPVRRPDAYELSRIFVVPRKRGEHGGPRAEAVIQAAAMEYGLSIGLSAFTIVLETWWLPRLVDQGWKAKPLGLPQDINGFSTTAVIVDVDDDAWVGICNRRSVPGPTLEWRGLEAIRRHSLPEFQVIS” as the sequence, how does the “soluble on expression in E. coli” value read?
A: not soluble

Q: With “HDVIFHIRAKGKNQKLLLSAHPSYSRVHITAQAYENPSEPPMFCMLLRKHIEGGFIEKIEQAGLDRIMIFHIKSRNEIGDETVRKLYVEIMGRHSNIILTDAAENVIIDGLKHLSPSMNSYRTVLPGQDYKLPPAQDKISPLEASEDDILRHLSFQEGRLDKQIVDHFSGVSPLFAKEAVHRAGLANKVTLPKALLALFAEVKEHRFIPNITTVNGKEYFYLLELTHLKGEARRFDSLSELLDRFYFGKAERDRVKQQAQDLERFVVNERKKNANKIKKLEKTLEYSENAKEFQLYGELLTANLYMLKKGD” as the sequence, how does the “soluble on expression in E. coli” value read?
A: not soluble

Q: For “MGHHHHHHSHMGYKLQDLTDVQIMARLQEESLRQDYASTSASVSRHSSSVSLSSGKKGTCSDQEYDQYSLEDEEEFDHLPPPQPRLPRCSPFQRGIPHSQTFSSIRECRRSPSSQYFPSNNYQQQQYYSPQAQTPDQQPNRTNGDKLRRSMPNLARMPSTTAISSNISSPVTVRNSQSFDSSLHGAGNGISRIQSCIPSPGQLQHRVHSVGHFPVSIRQPLKATAYVSPTVQGSSNMPLSNGLQLYSNTGIPTPNKAAASGIMGRSALPRPSLAINGSNLPRSKIAQPVRSFLQPPKPLSSLSTLRDGNWRDGCY”, which “soluble on expression in E. coli” value is on record?
A: not soluble

Q: With “MGSDKIHHHHHHFDGFGAVSGGGATSKLLFTYFSEKSDRKQVLESLFNKDNGLQLLKVEMGGDDQSTEGTESSHESEKGKISKNNYEFQLISEVREINPTIPICVLPWAFPGWIGNTPYDNVTETAEYVVNWLKIGRDTWNFDTFCVGVWNERNFSESYVKELRKILNLNGFNETLIVAGEGFRMDDSYSRLLDKRFINEYDIIG” as the sequence, how does the “soluble on expression in E. coli” value read?
A: not soluble

Q: With “ASLYEKLGGAAAVDLAVEKFYGKVLADERVNRFFVNTDMAKQKQHQKDFMTYAFGGTDRFPGRSMRAAHQDLVENAGLTDVHFDAIAENLVLTLQELNVSQDLIDEVVTIVGSVQHRNDVLNR” as the sequence, how does the “soluble on expression in E. coli” value read?
A: soluble

Q: Which “soluble on expression in E. coli” value does the source give for “MKTVVIGAGLGGLLSAARLSKAGHEVEVFERLPITGGRFTNLSYKGFQLSSGAFHMLPNGPGGPLACFLKEVEASVNIVRSEMTTVRVPLKKGNPDYVKGFKDISFNDFPSLLSYKDRMKIALLIVSTRKNRPSGSSLQAWIKSQVSDEWLIKFADSFCGWALSLKSDEVPVEEVFEIIENMYRFGGTGIPEGGCKGIIDALETVISANGGKIHTGQEVSKILIENGKAAGIIADDRIHDADLVISNLGHAATAVLCSEALSKEADAAYFKMVGTLQPSAGIKICLAADEPLVGHTGVLLTPYTRRINGVNEVTQADPELAPPGKHLTMCHQYVAPENVKNLESEIEMGLEDLKEIFPGKRYEVLLIQSYHDEWPVNRAASGTDPGNETPFSGLYVVGDGAKGKGGIEVEGVALGVMSVMEKVLGLEHHHHHH” here?
A: soluble

Q: For “MSLKPFSEPIIRCAKARAYRIPTDRPEADGTFAWTDTTIVVATLDAGDAHGIGYTYTDASAAALIERMLAPALDGRSAFDIGGALAALRRAVRNVGRGGVAATAISALDAALWDAKAKLLGLPLAKLLGGVRDAVPVYGSGGFTSYDEHALRAQLEGWRAQGLHACKIKVGSAPRDDPARVRIARDALGGGVALFVDANGAFAPHDALAFAQRIAECDVRWFEEPVSADDIDGLRFVRERLAAGVDVAAGEYGYTLDDFRVLLASGALDVLQADATRCGGVSGFLEAATLADAFHRDLSAHCAPALHRHVCCAAPRVRHVEWFHDHARIERMLFDGAPTPRDGAIAPDMSRPGLGIELKAQDAARFAVEGHHHHHH”, which “soluble on expression in E. coli” value is on record?
A: not soluble

Q: Which “soluble on expression in E. coli” value does the source give for “MEIGIIGTGNIGGTLARKLIAAGHQVRVANSKGIHGVQSFADEIGATAVDVYGAVKGADAIILSIPLPALASLPNGFFDDLPETVPLIDTSNYYPGLRDPLIPEIDDGMTESVWVSQQLSHPVIKAFNNILAWSLAELGTPKGSASRLAIAVAGDNATLKQIVMNLVDDTGFDAIDAGSLEESWRQQPSTPAYCCDYDAETMKKGLTAAVRGEAASKRDRLPELFGKLGANPTHEDIVAMNRSLNPLEHHHHHH” here?
A: soluble

Q: Which “soluble on expression in E. coli” value does the source give for “MNNLLRCHQVCKTYQEGELQTQVLKGVSFELKRGELVSIIGSSGSGKSTLLHILGALDDASEGQVEFLGQSLHQLSSNKQAKIRNQHLGFVYQFHHLLADFSALENVAMPLLIGGMNVAKAKAKAQSLLERVGLGHRVAHRPSELSGGERQRVAIARALVNKPDLVLADEPTGNLDHKTALSIYDLMRELNRESGTAFLVVTHDGELAAKMDRHMHMKDGLLTDITGA” here?
A: not soluble

Q: With “MTEPLILQPAKPADACVIWLHGLGADRYDFMPVAEALQESLLTTRFVLPQAPTRPVTINGGYEMPSWYDIKAMSPARSISLEELEVSAKMVTDLIEAQKRTGIDASRIFLAGFSQGGAVVFHTAFINWQGPLGGVIALSTYAPTFGDELELSASQQRIPALCLHGQYDDVVQNAMGRSAFEHLKSRGVTVTWQEYPMGHEVLPQEIHDIGAWLAARLG” as the sequence, how does the “soluble on expression in E. coli” value read?
A: soluble

Q: Which “soluble on expression in E. coli” value does the source give for “MGSDKIHHHHHHMDSLLMNRRKFLYQFKNVRWAKGRRETYLCYVVKRRDSATSFSLDFGYLRNKNGCHVELLFLRYISDWDLDPGRCYRVTWFTSWSPCYDCARHVADFLRGNPNLSLRIFTARLYFCEDRKAEPEGLRRLHRAGVQIAIMTFKDYFYCWNTFVENHERTFKAWEGLHENSVRLSRQLRRILLPLYEVDDLRDAFRTLGL” here?
A: not soluble

Q: With “MSLGDSRGRVFSWSVSDQPGRSAADHWVKDEGGDSCSGCSVRFSLTERRHHCRNCGQLFCQKCSRFQSEIKRLKISSPVRVCQNCYYSLQHERGAEDGPRNCEGHHHHHH” as the sequence, how does the “soluble on expression in E. coli” value read?
A: soluble

Q: For “MFDRSRKGEYALLIQPLTDHSAEDGALEEFADLTRSAGATVAGSLAVRIHRPNPSTLLSSGKLKEIKETADATGADLILINHSLSPVQERNLEKSLERRVIDRTGLILDIFAQRACSHEGKLQVELAQLRHLATRLVRGWTHLERQRGGAIGLRGPGETQLETDRRLLQKRVEQLQKRLSKVEVQRTQMRRARVRSEVPRIALVGYTNSGKSTLFNALTGASAYTANQLFATLDPKVRRIVLPGSSAMLADTVGFVRHLPHELVAAFRSTLSEAREADLLLHVIDAADPLREERIDQVDEVLQAIGAGELPQLLVFNKIDCIEGAEVRQDAQDGIPDQARRERVWLSARHGHGVELLQQILNHRLKIQNVQSELRLPPSEGRLRARLHELKGVREEQTDEHGWLLKIDLSLAEIERLAASDYGIPLRALLQDHRDAWTPTLHSKYVSAEYLEHHHHHH”, which “soluble on expression in E. coli” value is on record?
A: not soluble

Q: For “MAHHHHHHMGTYFSKDLQECLREEKRNLNRSIRELEREIFKMENEKKQIEKNIRIHAKKNDITLVRTLAKDLVKIKQNVIKYNKIKSHLLSMKIKLQSVKSSEQLNKSLCDINNIIKRVNKYIQVKNINNSIYEFQKQNNEVSIKEDMIDDLFDTLNYDIDMIQEEDEIVSKVLDELGIQLNSKLEQIPTIKQTENEQLDNVNISKIEDRINNLKKM”, which “soluble on expression in E. coli” value is on record?
A: soluble

Q: For “MAKTTGILDKSLSRGKTEINLSTFAVLFSEMVLYAQNRSETVTDIHDKIASYGKQVGLRMFDIITLREKGYKRETKLLGMLMFIKSTVWKNLFGKEADKLERSNDDHCTYLLIEKDPMVNTYISVPRDKGVLNCAAFAAGIVEAILESASFKCKVTAHWHNGTAYVIQFDESVIARENSLLDSNR”, which “soluble on expression in E. coli” value is on record?
A: not soluble

Q: With “MSLWLAGTWYTGQRIETESQTRLNEINAQLAAAFPEFPVRINQLKLERGFFTSQARYGVEVGKSEETGKPEATVEVDARIEHGPFAPGALARGKLMPQLAFVHAEVANTEDLKKVFEVTKGATPLWSDTVVAYNGDSTSTGGLAAIDYSGDEGKFAFSGATFDGSYQRATQAAIGSLKADSLALDASADDDGGPLLFTLDGLAVTVDSRMGKSGLSIGDSALSVKRLEVKQPEGDAHLTVADMAYAARIGEQDEFINGEISYGAGEITYNGIALGNGRAVFKAERLNAAAIKVVADEYNKAIKLQAEGKDPVPDNAEMRKLLMAQADTLLAGKPVLTLDPVQWKTAQGESVFNARVALSKPASSDLMAVDYFSQAIESIDASATLSKPMIKALMVGYLQSQEGMDAQQAAAAADQQVSSLAGMAEMMNLGKNEGDNIVSKFHYAAGTVDLNGRKMPADQLLGSILGGEGHHHHHH” as the sequence, how does the “soluble on expression in E. coli” value read?
A: not soluble

Q: With “MCINLQKMCKKCAKMCKICAKVCKKCAKNVQKKCKKCGKMCKKCAKKCLKKSKFSDPRNPKMLPTSLLVCSTGIPIECSAELLSKFKTRRI” as the sequence, how does the “soluble on expression in E. coli” value read?
A: soluble

Q: For “MSLKPLADRIRPENFNEVFGQKHIIGEGKILDRILKSSLVPNMIFYGPPGTGKTTVANIIAKKTNKAFYKLNATTASVKDVREITDSTNTLMGRNGVLLYLDEIQNFNKKQQQSLLEFMENGSITLIASTTENPYFYVYNAILSRSTIFEFKPLESDELMKAVNRAVELIKDELKTTEIIITEDAKKYAVGVSSGDVRKTLNSIEIAVYSTKPNEEGNIFIDLETMKECTQKNVLNFDKDGDNHYDILSAFQKSIRGSDADAAVLYLAMLIKGGDLKSICRRLLVIAAEDIGLAYPQAISIVKACTDSALELGFPEARIPLAEAVILLATSPKSNSAITAVDSALRDLDTINVGSIPDYLRDGHYEGAKKLGRMQDYKYPHSYENNYVKQKYLPSNLENRRYYEYGKNKIEEKCREYWERIKEGHHHHHH”, which “soluble on expression in E. coli” value is on record?
A: soluble

Q: For “QQIGLKTNLLYWGTTTPNAGLEFRMGKKWTLDVSGGYNPFTFSHHRKLKHWLVAPELRYWTCEAFSGHFFGLHGIGGEYNVNDIDIPIGRLKKLNNYRYE”, which “soluble on expression in E. coli” value is on record?
A: not soluble

Q: With “MTGDYALCGWRVRIDRPSTFAPPWIGEDRPVDITIRHAAFSPPSPPLLFESPLVGVFAEGAIVLRINPGLGFLIEGGARITVDATAQTGEAEIATFLFGQCLGFLALQRRQPALRAASVVRDGRAVVLAGAAGVGKSTLAAALMAKGWGLLADEVTLIDPRTLLIPPAFGRIKLWKDSATHLGLEAAALPAVRPGWNKGHAPYGGHLAPAPVPLAAIILIEQAYTAKTAGIDKIAPREALAALNDQLHGGTFAGALAARPACFDLLTTLVGGVPVFQLSRPWHGMTLAPLVELLTAEMARLEHHHHHH” as the sequence, how does the “soluble on expression in E. coli” value read?
A: not soluble
